Measured values as given in US20080249043.

Assays:
[1] = biological target: first 50-aa fragment of PLS3, His-tagged (UniProt Q9NRY6)
His-tagged PLS3(T21A) = His-tagged PLS3(T21A) (UniProt Q9NRY6)
[2] = biological target: His-tagged PLS3 (wild-type phospholipid scramblase 3) (UniProt Q9NRY6)

Chain of His-tagged PLS3(T21A) (Q9NRY6 other isoform, or with tags, fused parts or gaps T21A): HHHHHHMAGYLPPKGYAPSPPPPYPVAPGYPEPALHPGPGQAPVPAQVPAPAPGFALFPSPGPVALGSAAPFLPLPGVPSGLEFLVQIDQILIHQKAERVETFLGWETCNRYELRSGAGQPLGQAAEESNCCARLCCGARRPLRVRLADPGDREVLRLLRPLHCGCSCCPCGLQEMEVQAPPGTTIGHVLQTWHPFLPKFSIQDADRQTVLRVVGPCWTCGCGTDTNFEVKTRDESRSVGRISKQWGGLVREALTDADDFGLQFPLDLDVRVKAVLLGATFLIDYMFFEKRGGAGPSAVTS

Substance: Recombinant human PKC-δ enzyme (Calbiochem)
- in vitro phosphorylation with [γ-32P]ATP, autoradiography [1]: Phosphorylation was seen in both full-length PLS3 and its N-terminal fragment of PLS3
- in vitro phosphorylation with [γ-32P]ATP, autoradiography (His-tagged PLS3(T21A)): mutation at Thr21 nearly eliminated PLS3 phosphorylation by PKC-δ
- in vitro phosphorylation with [γ-32P]ATP, autoradiography [2]: Phosphorylation was seen in both full-length PLS3 and its N-terminal fragment of PLS3
